Where two headings read alike, the source gives them in different places.
What was measured:
[1] = Incubation with rat TG macrophage cell lysates; assay type: in vitro ADME; settings: rat TG macrophage lysate, pH 4.5, 37° C., 1 hour
Description: Female Lewis rats approximately 200 grams in size (Harlan Laboratories, Indianapolis, Ind.) were injected intraperitoneally at 20 mL/kg of body weight with sterile 7.5% thioglycollate solution (BD Biosciences) supplemented with 12.5% BSA aged for more than 6 months in the presence of 0.5 M D-glucose at 37° C. in the dark according to the procedure of Li et al. (Journal of Immunological Methods (1997) 201:183-188). Three days later these rats were humanely euthanized with CO2 asphyxiation and total peritoneal cells isolated by intraperitoneal lavage with 50 mL of sterile phosphate buffered saline (PBS) containing 0.5 mM EDTA. Red blood cells were lysed with a 5 minute incubation with 1×RBC lysis buffer (BioLegend, San Diego, Calif.). […] Cells were incubated for 2 hrs in 5% CO2. After two hours, floating cells/debris was removed and the adherent cells were washed once with drug free media. Normal growth media (10% FCS RPMI1640) was added to each plate of cells and then incubated for 1, 2 and 3 days in the tissue culture incubator. The adherent cells were harvested using an 8 minute trypsin digest to loosen the cells and then gently scraped off the plate. […] Live cells were counted and then washed once with cold PBS. […]

[2] = Plasma protein binding by ultrafiltration, dog plasma; assay type: in vitro ADME; settings: 500 nM
Description: (§1) EC2319 and EC1669 plasma protein binding was evaluated by ultra filtration using VWR 30K MWCO modified PES filters. 250 μL of 500 nM EC2319 or EC1669 in K3EDTA plasma incubated at 37° C. was added to the upper filter vessel. 50 μL was immediately removed as the donor plasma sample and aliquoted into a clean 1.2 mL plate. […] An aliquot of […] plasma ultrafiltrate was then added to the 1.2 mL plate as the receiver sample. To each plasma sample, 50 μL of plasma ultrafiltrate was added, and each ultrafiltrate sample received 50 μL of plasma to mitigate matrix effects. N-Maleoyl-β-alanine, mannitol, and acetic acid were added at the end of each experiment to stabilize the samples prior to LC-MS/MS analysis.

Pharmacokinetics in dogs = settings: beagle, dog, in vivo
Description: (§2) The samples were centrifuged under refrigeration for at least 10 minutes at 3000 rpm and the plasma generated stored at −20° C. until LC-MS/MS analysis.
as §2
LC-MS/MS analysis utilized a Waters Acquity UPLC system paired with a Waters Quattro Premier XE tandem quadrupole mass spectrometer operating in ESI positive mode. Prior to injection, K3EDTA plasma samples were processed using a Phenomenex Strata X-A solid phase extraction (SPE) plate. All plasma samples were fortified with N-Maleoyl-β-alanine, mannitol, and acetic acid. Briefly, 50 μL of plasma diluted with 50 μL of internal standard solution and 500 μL 1000:4:1.5 water:ammonium hydroxide:formic acid was mixed and loaded onto a preconditioned Strata X-A SPE plate. Aqueous and organic washes were then applied followed by elution of all analytes with 300:200:7.5 methanol:water:formic acid. The samples were evaporated until approximately 30 μL remained in all wells and 30 μL of 9:1 water:ammonium hydroxide was then added. Finally, the plate was sealed, mixed, and centrifuged prior to transfer to the 2-8° C. Acquity autosampler. Note: During EC1669 analysis, EC0470 was converted to a hydrazone product for bioanalysis. Acetone (500 μL) was added to all samples after the first evaporation step followed by sealing all wells and heating at 50° C. for one hour. After this step, the acetone was evaporated and the extraction completed as described above.
A 10 μL sample volume was applied to the Waters BEH Shield RP18 100×2.1 mm, […] UPLC column operating at a flow rate of 0.4 mL/min while being maintained at 45° C. A gradient between mobile phase A (1000:4:1.5 water:ammonium hydroxide:formic acid) and mobile phase B (acetonitrile) was used to separate the analytes. The gradient was held at 2% B for the first 30 seconds of the chromatographic run followed by increasing to 20% B by 2.5 minutes. A rapid gradient from 60-90% B is then used to clean the column prior to equilibration at 2% B to complete the 4 minute run cycle.
For EC1669 MS/MS analysis, EC1669 and its known major metabolites, EC1886 and […], were optimized and monitored. […] In all cases, internal standard response was used to generate response ratios for each analyte. When calibrated, data was regressed using MassLynx 4.1 software. The table below lists transitions for analytes and internal standards monitored for LC-MS/MS bioanalysis.

[3] = Plasma protein binding by ultrafiltration, human plasma; assay type: in vitro ADME; settings: 500 nM
Description: as §1

[4] = 500 nM, 37° C., two hours
Description: Blood samples were maintained at 37° C. for 30 minutes prior to spiking the analyte into 2.5 mL blood at 500 nM. At time 0 and every 30 minutes for two hours, blood samples were removed and centrifuged at 2000×g for 10 minutes to generate plasma. 50 μL aliquots of generated plasma were then transferred to a clean 1.2 mL plate containing N-Maleoyl-β-alanine, mannitol, and acetic acid. Samples were stored at −80° C. until being thawed for LC-MS/MS analysis.

With `N=c1[nH]c(N)nc2ncc(CNc3ccc(C(=O)N[C@@H](CCC(=O)NNC(=O)OCCSSC[C@@H](NC(=O)[C@H](CCC(=O)NC[C@H](O)[C@@H](O)[C@H](O)[C@H](O)CO)NC(=O)[C@@H](CCC(=O)O)NC(=O)[C@H](CCC(=O)NC[C@H](O)[C@@H](O)[C@H](O)[C@H](O)CO)NC(=O)[C@@H](CCC(=O)O)NC(=O)[C@H](CCC(=O)NC[C@H](O)[C@@H](O)[C@H](O)[C@H](O)CO)NC(=O)CC[C@H](NC(=O)c4ccc(NCc5cnc6nc(N)[nH]c(=O)c6n5)cc4)C(=O)O)C(=O)O)C(=O)O)cc3)nc12` [EC1669, reference compound] the aminopterin release [1] was “greater from EC1669 than from EC2319”, the plasma protein binding [2] was “high plasma protein binding” and the AUC(0-t) (Pharmacokinetics in dogs; sc, 2.4 mg/kg) was 4.07 µM·h. It also gave a Cmax (Pharmacokinetics in dogs; sc, 2.4 mg/kg) of 1390 nM, a Tmax (Pharmacokinetics in dogs; sc, 2.4 mg/kg) of 1.19 h and a half-life (Pharmacokinetics in dogs; sc, 2.4 mg/kg) of 0.994 h. For the same compound, the plasma protein binding [3] was “high plasma protein binding”.

With `COC(=O)[C@H](CSSC(C)(C)[C@H](NC(=O)[C@H](CCC(=O)NC[C@H](O)[C@@H](O)[C@H](O)[C@H](O)CO)NC(=O)[C@H](CCC(=O)O)NC(=O)[C@H](CCC(=O)NC[C@H](O)[C@@H](O)[C@H](O)[C@H](O)CO)NC(=O)[C@H](CCC(=O)O)NC(=O)[C@H](CCC(=O)NC[C@H](O)[C@@H](O)[C@H](O)[C@H](O)CO)NC(=O)CC[C@H](NC(=O)c1ccc(NCc2cnc3nc(N)[nH]c(=O)c3n2)cc1)C(=O)O)C(=O)O)NC(=O)CC[C@H](NC(=O)c1ccc(NCc2cnc3nc(N)nc(N)c3n2)cc1)C(=O)O` [EC2319] the aminopterin release [1] was “aminopterin release was observed”, the plasma protein binding [2] was “higher plasma protein binding than did EC1669” and the “whole blood stability (percent remaining of intact conjugate, formation of EC1886)” value ([4]; fresh human blood) was “superior stability profile than EC1669”. The “whole blood stability (percent remaining of intact conjugate, formation of EC1886)” value ([4]; fresh rat blood) was “superior stability profile than EC1669”, the bioavailability (Pharmacokinetics in dogs; male, 2.43 mg/kg) was 133% and the Tmax (Pharmacokinetics in dogs; male, iv, 1 mg/kg) was 0.03 h. It also gave a Vd (Pharmacokinetics in dogs; male, iv, 1 mg/kg) of 0.41 L/kg, a clearance (Pharmacokinetics in dogs; male, iv, 1 mg/kg) of 4.7 mL/min/kg and a half-life (Pharmacokinetics in dogs; male, iv, 1 mg/kg) of 1.01 h. The AUC(0-t) (Pharmacokinetics in dogs; male, sc, 2.43 mg/kg) was 5.07 µM·h, the half-life (Pharmacokinetics in dogs; male, sc, 2.43 mg/kg) was 1.21 h and the plasma protein binding [3] was “higher plasma protein binding than did EC1669”.

Source: US20180280528A1, “ANTIFOLATE CONJUGATES FOR TREATING INFLAMMATION” (ENDOCYTE, INC., priority 2015, published 2018)
